Reference: US8026342B2, “Compositions and methods for binding sphingosine-1-phosphate” (Lpath, Inc., priority 2006, dated 2011)

Assays:
[1] = LT1009 formulation stability study (visual inspection, syringeability, SE-HPLC); format: physicochemical; settings: independent of antibody concentration
Protocol: Preferred formulations should not only stabilize the antibody, but also be tolerated by patients when injected. […] Additionally, three different storage temperatures (5° C., 25° C., and 40° C.) were also examined (representing actual, accelerated, and temperature stress conditions, respectively). Stability was assessed using representative samples taken from the various formulations at five different time points: at study initiation and after two weeks, 1 month, 2 months, and 3 months. At each time point, testing involved visual inspection, syringeability (by pulling through a 30-gauge needle), and size exclusion high performance liquid chromatography (SE-HPLC). Circular dichroism (CD) spectroscopy was also used to assess protein stability since above a certain temperature, proteins undergo denaturation, followed by some degree of aggregate formation. The observed transition is referred to as an apparent denaturation or “melting” temperature (Tm) and indicate the relative stability of a protein. […]
For a given time point, aliquots from each sample were subjected to a series of standard analyses, including visual inspection, syringeability, pH, SDS-PAGE (under both reducing and non-reducing conditions), SE-HPLC, and IEF. Protein concentrations were determined by UV spectroscopy (OD-280). […]

[2] = test system: VEGF-induced angiogenesis; assay: VEGF-induced angiogenesis in GFR Matrigel plug assay; format: in vivo, nu/nu mice; settings: 10 mg/kg i.p. every 72 hrs, 12 days
Protocol: Neovascularization in vivo was performed using the GFR Matrigel plug assay as described in Staton, et al., Int J Exp Pathol, 2004. 85(5): p. 233-48. 4-6 week old nu/nu mice were injected in the left flank with 500 uL of ice-cold GFR Matrigel. The GFR Matrigel was injected either alone (control) or after addition of 10 ug/mL VEGF supplemented with 100 ug/ml heparin. Groups consisted of 3 animals for control and sonepcizumab treatment. Animals were treated with the saline or sonepcizumab (10 mg/kg) 1 day prior to the implantation of GFR Matrigel and doses were administrated i.p. every 72 hrs for the duration of the experiment. After 12 days animals were sacrificed; the plugs were excised and immediately fixed in zinc and formalin-free fixative overnight, embedded in paraffin and sectioned (5 um). Paraffin-embedded sections were then stained for CD31 (Pharmingen). Images (9 images per section, 3 sections per plug) were taken by digital camera at 20× magnification and the CD31 positive staining was then quantified by PhotoShop 6.0 program and expressed as angiogenesis score (pixel^2) by ImageJ.

[3] = test system: cardiac scar formation / immune-cell wound infiltration; assay: Permanent myocardial infarction murine model (fibrosis, immune cell infiltration); format: in vivo, mice
Protocol: SPHINGOMAB reduced immune-cell wound infiltration in vivo. Mice were subjected to MI, treated with saline or 25 mg/kg SPHINGOMAB 48 hr. after surgery and then sacrificed on day 4. SPHINGOMAB reduced macrophage (A) and mast cell (B) infiltration into the wound. Data are represented as fold decrease of saline-treated values.
Studies evaluated the efficacy of SPHINGOMAB to reduce cardiac scar formation after permanent myocardial infarction (MI) via ligation of the left descending coronary artery in mice. Systemic administration of 25 mg/kg SPHINGOMAB or saline was initiated 48 hrs after surgery. Antibody administration at 48 hr. was chosen to allow normal, reparative scar formation to occur during the early remodeling phase and permit beneficial, S1P-stimulated angiogenesis immediately after the MI. Two weeks after the infarct, mice were sacrificed and fibrosis was accessed by Masson's trichrome staining of the cardiac tissue. […] As a control for any non-specific wound-healing responses, sham animals underwent thoracotomy without coronary artery ligation (FIG. 7E).
Based upon the similarities of immune and inflammatory responses in CNV and CVD, the efficacy of SPHINGOMAB to mitigate immune cell infiltration into a wound was evaluated in a murine infarct model as an indication of SPHINGOMAB's potential effects in mitigating these damages during AMD [Vine, et al. (2005), Ophthalmology., vol 112: 2076-80; and Seddon and Chen (2004), Int Ophthalmol Clin., vol 44: 17-39]. Four days post-MI, macrophage and mast cell infiltration was evaluated using MAC-1 and MCG35 antibodies, respectively, within the area at risk.

[4] = 28-day toxicity and toxicokinetic study of LT1002 in mice; format: in vivo; settings: 28 days
Protocol: The purpose of this study was to determine the toxicity and toxicokinetic profile of the murine anti-S1P monoclonal antibody, LT1002, following daily administration to C57/BL6 mice. The study was conducted by an independent contract laboratory organization, LAB Research, Inc. The LT1002 dosing solutions were administered for 28 consecutive days to animals in each group by bolus intravenous injection via the tail vein (Days 1-14) and then by bolus intraperitoneal injection (Days 15-28), over a period of approximately 0.5-1.0 minute. The treated group animals were dosed with LT1002 at 30, 75 or 200 mg/kg (n=6 per group) and compared to animals treated with PBS as a saline (vehicle) control group.
During the study, animals were monitored for effects on mortality, clinical condition, body weight and food consumption. Blood samples were collected from a subgroup of animals at necropsy for assessment of hematology, coagulation and clinical chemistry. Study animals were euthanized and subjected to a necropsy examination. Selected organs were weighed and a full list of tissues was retained. A histopathology examination was performed on the full tissue list from all control and high dose animals (200 mg/kg/day) and all abnormalities, while target organs were examined on lower dose groups. Blood samples were collected from the toxicokinetic animals (3 animals/sex/group/time point) on Days 1, 14 and 28 and the animals were euthanized and discarded without examination.

Molecule	conditions of greatest stability (SE-HPLC) [1]	prevention of VEGF-stimulated increase in cellularity and microvessel density [2] [%]	perivascular fibrosis ([3]; 25 mg/kg from 48 hrs after surgery, two weeks after infarct)	density of inflammatory macrophages ([3]; four days post-MI)	density of mast cells ([3]; four days post-MI)	average lymphocyte counts (+/-SD) ([4]; 30 mg/kg daily)	average lymphocyte counts (+/-SD) ([4]; 75 mg/kg daily)	average lymphocyte counts (+/-SD) ([4]; 200 mg/kg daily)
LT1009: humanized anti-S1P IgG1/kappa mAb with Cys to Ala in HCDR2, light chain with 5 backmutations; SEQ ID NO: 31/32	most stable around pH 6 and 450 mM NaCl	~80	–	–	–	–	–	–
LT1002: murine anti-S1P monoclonal antibody, IgG1 kappa, from hybridoma clone 306D326.26 (antibody, listed as Mus sp., V domains shown) VH: QAHLQQSDAELVKPGASVKISCKVSGFIFIDHTIHWMKQRPEQGLEWIGCISPRHDITKYNEMFRGKATLTADKSSTTAYIQVNSLTFEDSAVYFCARGGFYGSTIWFDFWGQGTTLTVS VL: ETTVTQSPASLSMAIGEKVTIRCITTTDIDDDMNWFQQKPGEPPNLLISEGNILRPGVPSRFSSSGYGTDFLFTIENMLSEDVADYYCLQSDNLPFTFGSGTKLEIK	–	–	almost complete abrogation	dramatically attenuated	dramatically attenuated	0.856+/−0.426 10^9 cells/L	0.902+/−0.269 10^9 cells/L	0.638+/−0.262 10^9 cells/L
